The values below come from paper PMC5472695.

For the assay, the target named is His-tagged recombinant amelogenin (wild-type) (mouse) (UniProt P63277). The assay is described as follows: SDS PAGE with anti-amelogenin Western blot; crude 3% acetic acid E. coli extract and nickel column fractions; non-reducing SDS loading buffer, heated at 90°C for 1.5 min, 12% resolving gel; blot with rabbit anti-amelogenin antibody. (Immunoblotting shows a protein as a band on a membrane.)

As for “His-tagged recombinant amelogenin (wild-type) (from UniProt P63277 17-210) (natural protein)”, the stoichiometry N is 2.

Usually stoichiometry N stands for the number of molecules, sites or subunits per partner or assembly.
